# In patent US10307466B2, “Composition comprising sophorolipid, physiologically active substance and oil or fat, and method for producing the same” (SARAYA CO., LTD., priority 2014, dated 2019):
# B1: bovine lactoferrin (protein, UniProt P24627 20-708, looked up)
# Lactotransferrin: APRKNVRWCTISQPEWFKCRRWQWRMKKLGAPSITCVRRAFALECIRAIAEKKADAVTLDGGMVFEAGRDPYKLRPVAAEIYGTKESPQTHYYAVAVVKKGSNFQLDQLQGRKSCHTGLGRSAGWIIPMGILRPYLSWTESLEPLQGAVAKFFSASCVPCIDRQAYPNLCQLCKGEGENQCACSSREPYFGYSGAFKCLQDGAGDVAFVKETTVFENLPEKADRDQYELLCLNNSRAPVDAFKECHLAQVPSHAVVARSVDGKEDLIWKLLSKAQEKFGKNKSRSFQLFGSPPGQRDLLFKDSALGFLRIPSKVDSALYLGSRYLTTLKNLRETAEEVKARYTRVVWCAVGPEEQKKCQQWSQQSGQNVTCATASTTDDCIVLVLKGEADALNLDGGYIYTAGKCGLVPVLAENRKSSKHSSLDCVLRPTEGYLAVAVVKKANEGLTWNSLKDKKSCHTAVDRTAGWNIPMGLIVNQTGSCAFDEFFSQSCAPGADPKSRLCALCAGDDQGLDKCVPNSKEKYYGYTGAFRCLAEDVGDVAFVKNDTVWENTNGESTADWAKNLNREDFRLLCLDGTRKPVTEAQSCHLAVAPNHAVVSRSDRAAHVKQVLLHQQALFGKNGKNCPDKFCLFKSETKNLLFNDNTECLAKLGGRPTYEEYLGTEYVTAIANLKKCSTSPLLEACAFLTR
# System: ICR mice
# Experiment: Tail-flick test with 48° C. heat stimulation (enhancement of the analgesic effect of morphine)
# Assay type: in vivo
# Parameters: key: −: no analgesic effect was observed; ±: an analgesic effect comparable to the treatment control was observed; +: an analgesic effect comparable to the positive control was observed; ++: a higher analgesic effect than the positive control was observed; +++: a higher analgesic effect than “++” was observed
# Description: For the evaluation of an analgesic effect, the tail-flick test was performed with 48° C. heat stimulation. In the tail-flick test, the tail of mice is exposed to heat stimulation, and latency for the animal to flick the tail is measured. The response latency is known to be delayed after administration of an analgesic drug such as morphine. The test is used for the evaluation of an analgesic effect.
# ICR mice at 5 weeks old were subjected to daily simultaneous administration of an intraperitoneal dose of morphine (3 mg/kg) (morphine hydrochloride (trade name), Daiichi Sankyo) and an oral dose of one of the compositions of Examples 1 to 3 (300 mg/kg bLF) and Comparative Example 1 (300 mg/kg) for 5 days. At 30 and 90 minutes after the administration on day 5, the tail-flick test was performed.
# As a treatment control, ICR mice at 5 weeks old were subjected to daily simultaneous administration of an intraperitoneal dose of morphine (3 mg/kg) and an oral dose of physiological saline for 5 days. The tail-flick test was then performed in the same manner as above.
# As a negative control, daily simultaneous administration of an intraperitoneal dose of physiological saline and an oral dose of physiological saline was performed for 5 days. […]
molecule,measurement,setting,value
B1,"Evaluation at 30 min (analgesic effect, tail-flick test)","30 minutes after administration on day 5, daily i.p. morphine 3 mg/kg + oral composition (300 mg/kg bLF) for 5 days",+
same,"Evaluation at 90 min (analgesic effect, tail-flick test)","90 minutes after administration on day 5, daily i.p. morphine 3 mg/kg + oral composition (300 mg/kg bLF) for 5 days",+
